The record followed here is patent publication US20130287781A1 (GlaxoSmithKline, published 2013).

Assay [1] has as its target T1, Squirrel monkey NOGO (A56) plus GST tag (squirrel monkey).
T1 construct: also called GST-NOGO-A56 from squirrel monkey
Put plainly: direct ELISA on GST-NOGO-A56 from squirrel monkey, Abs490.

Assay [2] has as its target T2, peptide 7 (biotin-SGSG-VLPDIVMEAPLNSAVP) (human, N-terminal biotin).
T2 peptide: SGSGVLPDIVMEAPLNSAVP
Put plainly: peptide ELISA: biotinylated 16-mer peptide on streptavidin, antibody at 5 ug/ml, kappa-chain peroxidase conjugate, Abs490.
Description: (§1) Streptavidin at 5 μg/ml in sterile water was coated onto Nunc immunosorp plates (100 μl per well) at 37° C. overnight. The plates were rinsed 3 times with PBS containing 0.05% Tween (PBST) then blocked with 3% BSA in PBST at 4° C. overnight. The plates were washed 3 times with PBST. Peptides were then added to the wells at a concentration of approximately 10 μg/ml (diluted in 3% BSA in PBST) and incubated at room temperature for 1 hour. The plates were washed 3 times with PBST then incubated for 1 hour with anti-NOGO antibodies diluted to 5 μg/ml in 3% BSA in PBST. […] The plates were washed 3 times with PBST and then incubated with 100 μl OPD peroxidase substrate (Sigma) per well for 10 minutes. The colour reaction was stopped by the addition of 50 μl 3 molar H₂SO₄. Absorbance at 490 nm was measured using a plate reader.

For assay [3], the target named is T3, peptide 6 (biotin-SGSG-TPSPVLPDIVMEAPLN) (human, N-terminal biotin).
T3 peptide: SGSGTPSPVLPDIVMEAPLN
Described as above.
Description: as §1

For assay [4], the target named is T4, Marmoset NOGO (A56) plus GST tag (marmoset).
T4 construct: also called GST-NOGO-A56 from marmoset
T4 sequence (chain, as listed by the source limits assumed): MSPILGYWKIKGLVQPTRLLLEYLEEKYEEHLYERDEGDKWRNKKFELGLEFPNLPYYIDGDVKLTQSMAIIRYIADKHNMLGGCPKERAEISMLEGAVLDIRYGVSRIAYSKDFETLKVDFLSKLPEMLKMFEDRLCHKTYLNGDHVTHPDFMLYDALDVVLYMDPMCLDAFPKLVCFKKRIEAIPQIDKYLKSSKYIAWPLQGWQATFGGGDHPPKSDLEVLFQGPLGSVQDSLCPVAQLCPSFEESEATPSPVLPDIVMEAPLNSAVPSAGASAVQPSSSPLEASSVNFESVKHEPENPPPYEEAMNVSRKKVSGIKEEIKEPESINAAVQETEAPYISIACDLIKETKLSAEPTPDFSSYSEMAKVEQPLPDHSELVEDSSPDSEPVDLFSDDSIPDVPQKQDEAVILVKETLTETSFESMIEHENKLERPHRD
Description: SPR (Biacore), reverse format: antibody captured by Protein A; end of the range tied to marmoset by Table 19.
Description: (§2) Protein A was immobilised on the surface at about 4000RUs and anti-Nogo-A antibodies were captured at approximately 300-400RUs. […] All the runs were done in duplicates. The values show the mean and standard deviation (in brackets) of 1-3 independent runs with each run done in duplicate and each data set analysed independently prior to calculation of the mean and standard deviation.

For assay [5], the target named is T5, GST-human NOGO-A56 (human).
T5 construct: Expressed in E. coli BL21 from pGEX-6P1 and purified on glutathione-sepharose; the GST tag is part of the protein in the assays; also called GST-Nogo-A 5+6; GST Nogo-A 5 + 6
T5 sequence (chain, as listed by the source limits assumed): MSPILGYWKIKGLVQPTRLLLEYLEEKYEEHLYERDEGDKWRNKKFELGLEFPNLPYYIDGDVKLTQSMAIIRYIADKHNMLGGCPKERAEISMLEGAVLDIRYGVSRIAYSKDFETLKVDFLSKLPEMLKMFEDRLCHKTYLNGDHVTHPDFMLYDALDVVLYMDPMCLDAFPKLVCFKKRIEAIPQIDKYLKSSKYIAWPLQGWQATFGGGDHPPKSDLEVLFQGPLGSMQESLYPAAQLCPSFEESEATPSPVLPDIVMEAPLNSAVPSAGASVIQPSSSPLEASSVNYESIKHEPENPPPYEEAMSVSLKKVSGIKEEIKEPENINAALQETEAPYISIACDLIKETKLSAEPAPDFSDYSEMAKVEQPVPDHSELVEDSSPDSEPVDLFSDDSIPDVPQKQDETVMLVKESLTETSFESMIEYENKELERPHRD
Put plainly: competition ELISA on coated GST-Nogo-A 5+6; competitor 2A10 pre-mixed, bound 2A10 detected with anti-mouse IgG-HRP.

For assay [6], the target named is T6, Human C1q (Sigma, C0660) (human, UniProt P02745 23-245; P02746 28-253; P02747 29-245).
T6 construct: Bought protein
T6 sequence (P02745 23-245 limits assumed, chain 1 of 3): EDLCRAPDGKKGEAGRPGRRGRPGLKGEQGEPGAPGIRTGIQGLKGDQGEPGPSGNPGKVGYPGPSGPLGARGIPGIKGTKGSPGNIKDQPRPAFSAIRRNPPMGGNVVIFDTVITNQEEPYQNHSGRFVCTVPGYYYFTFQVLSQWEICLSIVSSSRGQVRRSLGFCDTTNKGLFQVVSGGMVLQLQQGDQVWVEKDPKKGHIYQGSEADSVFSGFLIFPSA
T6 sequence (P02746 28-253 limits assumed, chain 2 of 3): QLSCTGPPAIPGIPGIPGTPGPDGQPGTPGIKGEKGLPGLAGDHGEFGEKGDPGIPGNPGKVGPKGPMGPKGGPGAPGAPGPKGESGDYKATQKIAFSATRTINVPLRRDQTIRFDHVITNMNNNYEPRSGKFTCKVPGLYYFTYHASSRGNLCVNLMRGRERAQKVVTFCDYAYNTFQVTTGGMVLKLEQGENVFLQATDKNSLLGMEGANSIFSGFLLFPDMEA
T6 sequence (P02747 29-245 limits assumed, chain 3 of 3): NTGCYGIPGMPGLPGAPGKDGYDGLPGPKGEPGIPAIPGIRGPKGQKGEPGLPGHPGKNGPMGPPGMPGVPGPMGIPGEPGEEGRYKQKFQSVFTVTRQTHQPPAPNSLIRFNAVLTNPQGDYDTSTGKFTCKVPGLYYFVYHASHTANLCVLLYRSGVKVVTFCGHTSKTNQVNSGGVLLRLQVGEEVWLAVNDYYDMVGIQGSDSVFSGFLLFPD
Description: C1q ELISA: antibody coated at 1 mcg/ml, human C1q added, anti-human C1q-HRP, Abs490.
Description: ELISA plates were coated with a fixed concentration of the purified humanised and control antibodies (1 mcg/ml).

Assay [7] has as its target T7, native human Nogo-A of IMR32 neuroblastoma cells (intracellular) (human, UniProt Q9NQC3 1-1192).
T7 construct: whole, on cells; Detected inside permeabilised, fixed cells (ER-resident), not on the cell surface; also called intracellular Nogo-A; native Nogo-A
T7 sequence (looked up): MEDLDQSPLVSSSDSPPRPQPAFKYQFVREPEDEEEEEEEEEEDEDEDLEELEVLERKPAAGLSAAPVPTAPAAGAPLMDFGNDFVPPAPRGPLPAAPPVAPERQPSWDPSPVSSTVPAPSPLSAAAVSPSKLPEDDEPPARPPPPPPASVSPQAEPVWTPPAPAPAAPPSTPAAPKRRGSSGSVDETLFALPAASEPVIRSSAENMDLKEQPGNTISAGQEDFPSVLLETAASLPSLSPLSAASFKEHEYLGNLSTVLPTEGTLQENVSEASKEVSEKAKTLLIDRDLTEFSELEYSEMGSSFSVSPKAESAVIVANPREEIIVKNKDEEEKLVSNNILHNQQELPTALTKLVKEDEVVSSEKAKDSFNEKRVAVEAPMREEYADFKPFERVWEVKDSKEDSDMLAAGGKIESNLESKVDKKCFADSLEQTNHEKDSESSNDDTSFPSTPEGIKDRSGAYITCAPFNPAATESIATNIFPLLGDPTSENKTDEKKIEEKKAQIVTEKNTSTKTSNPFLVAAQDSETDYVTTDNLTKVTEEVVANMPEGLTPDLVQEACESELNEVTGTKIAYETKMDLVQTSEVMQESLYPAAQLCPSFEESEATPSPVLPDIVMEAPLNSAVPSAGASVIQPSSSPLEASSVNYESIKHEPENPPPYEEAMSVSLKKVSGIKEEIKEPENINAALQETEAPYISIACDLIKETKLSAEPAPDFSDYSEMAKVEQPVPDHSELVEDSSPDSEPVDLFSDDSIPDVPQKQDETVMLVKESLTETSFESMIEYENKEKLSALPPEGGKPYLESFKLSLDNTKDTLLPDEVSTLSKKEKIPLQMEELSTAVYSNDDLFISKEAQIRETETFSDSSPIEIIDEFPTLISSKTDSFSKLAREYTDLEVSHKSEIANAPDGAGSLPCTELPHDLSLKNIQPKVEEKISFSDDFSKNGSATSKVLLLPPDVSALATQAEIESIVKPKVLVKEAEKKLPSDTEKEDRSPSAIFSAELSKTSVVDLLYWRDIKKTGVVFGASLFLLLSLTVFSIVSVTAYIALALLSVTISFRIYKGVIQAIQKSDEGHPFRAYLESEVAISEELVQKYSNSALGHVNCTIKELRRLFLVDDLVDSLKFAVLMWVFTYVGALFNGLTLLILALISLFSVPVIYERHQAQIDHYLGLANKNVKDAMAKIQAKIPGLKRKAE
Description: flow cytometry on permeabilised, fixed IMR32 cells (intracellular Nogo-A), PE anti-human IgG, MFI.
Description: In the second assay, the ability of the humanised antibodies to bind native Nogo-A was assessed using a human neuroblastoma cell line—IMR32. This cell line is characterised by high intracellular/low cell surface levels of Nogo-A protein. In an attempt to increase the binding signal, the assay was set-up to detect intracellular Nogo-A (ER-resident). IMR32 cells were permeabilised and fixed prior to staining with the anti-Nogo-A humanised antibodies. Binding of the antibodies to Nogo-A was detected using an anti-human IgG-PE labelled secondary (Sigma, #P8047).

Assay [8] addresses T5, GST-human NOGO-A56. Put plainly: SPR (Biacore T100), reverse format: antibody captured by Protein A, GST Nogo-A 5+6 0.125-8 nM flowed over; mean (SD in brackets).
Description: Protein A was immobilised to approximately 4000RUs by primary amine and used to capture 200-300RUs of the sample antibodies. […] The values show the mean and standard deviation (in brackets) of three independent runs in duplicate. Each data set was independently analysed prior to the calculation of the mean and standard deviation.
Assay [9] has as its target T8, Cynomolgus monkey NOGO (A56) plus GST tag (cynomolgus monkey).
T8 construct: also called cynomolgus Nogo-A; GST-NOGO-A56 from cynomolgus
Description: direct ELISA on GST-NOGO-A56 from cynomolgus, Abs490.

Assay [10] deals with T9, Rat NOGO (A56) plus GST tag (rat).
T9 construct: also called GST-NOGO-A56 from rat
T9 sequence (chain, as listed by the source limits assumed): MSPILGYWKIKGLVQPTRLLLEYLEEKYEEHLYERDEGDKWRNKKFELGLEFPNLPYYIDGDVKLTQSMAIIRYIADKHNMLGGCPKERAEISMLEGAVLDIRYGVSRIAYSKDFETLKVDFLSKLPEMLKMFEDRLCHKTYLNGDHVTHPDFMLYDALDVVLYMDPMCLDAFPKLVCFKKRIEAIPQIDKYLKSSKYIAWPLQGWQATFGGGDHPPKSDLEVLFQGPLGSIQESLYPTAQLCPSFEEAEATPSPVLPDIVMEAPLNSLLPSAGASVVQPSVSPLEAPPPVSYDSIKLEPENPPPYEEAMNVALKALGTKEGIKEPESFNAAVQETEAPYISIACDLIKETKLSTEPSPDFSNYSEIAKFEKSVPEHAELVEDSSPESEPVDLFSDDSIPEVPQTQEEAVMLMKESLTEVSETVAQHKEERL
Put plainly: SPR (Biacore), reverse format: antibody captured by Protein A.
Description: as §2

Assay [11] concerns the target T8, Cynomolgus monkey NOGO (A56) plus GST …. The assay is described as above.
Description: as §2
For assay [12], the target named is T5, GST-human NOGO-A56. Description: direct ELISA, GST-Nogo-A 5+6 coated at 1.0 mcg/ml, anti-human IgG-HRP, Abs490.
Description: Wells were rinsed once with TBS+0.05% Tween (TBST) then incubated with 2% BSA in TBST to block non-specific binding sites at room temperature for 1 hour. Antibodies were diluted in TBST+2% BSA to 10 μg/ml and ½ dilutions made from this. Antibodies were added to wells in duplicate and incubated at room temperature for 1 hour. […] The wells were washed three times with TBST and then incubated with 100 μl OPD peroxidase substrate (Sigma) per well for 10 minutes. The colour reaction was stopped by the addition of 25 μl concentrated H₂SO₄. Optical density at 490 nm was measured using a plate reader. Background values read from wells with no antibody were subtracted.
Assay [13] has as its target T5, GST-human NOGO-A56. Put plainly: SPR (Biacore), GST-human NOGO-A56 amine-coupled to CM5, antibody flowed over, 37 C.
Description: GST-human NOGO-A56 was immobilised to a CM5 chip by primary amine coupling using the Biacore Wizard program designed for targeted immobilisation levels. The CM5 sensor surface was activated by passing a solution of 50 mM N-hydroxy-succinimide (NHS) and 200 mM N-ethyl-N′-dimethylaminopropyl carbonide (EDC). Then GST-human NOGO-A56 in sodium acetate buffer, pH5.0 or pH 4.5, was passed over the chip and immobilised. After immobilisation was complete any still activated esters were blocked by an injection of 1M ethanolamine hydrochloride, pH8.5.
The anti-NOGO mAbs were diluted down in HBS-EP (10 mM HEPES, pH 7.4, 150 mM NaCl, 3 mM EDTA, and 0.005% P-20 surfactant) for the BIAcore 3000 or HBS-EP+ (10 mM HEPES, pH 7.4, 150 mM NaCl, 3 mM EDTA, and 0.05% P-20 surfactant) in the case of the T100 and binding studies were carried out at range of defined antibody concentrations. All runs were referenced against a blanked sensor surface (one that had been activated and blocked as described earlier but had no addition of ligand). Analysis of binding was carried out using the BIAevaluation kinetic analysis software version 4.1 for the BIAcore 3000 and T100 kinetic analysis software version 1.0. […] Unless otherwise stated, the BIAcore experiments were performed at 25° C.
Assay [14] deals with T5, GST-human NOGO-A56. Put plainly: SPR (Biacore) off-rate on NOGO chip, panel of H6FL CDR H3 variants with L13FL.
Assay [15] concerns the target T5, GST-human NOGO-A56. Description: direct ELISA, human NOGO-A (GST-human NOGO-A56) coated at 1 ug/ml, Abs490.

T8 sequence (chain, as listed by the source limits assumed): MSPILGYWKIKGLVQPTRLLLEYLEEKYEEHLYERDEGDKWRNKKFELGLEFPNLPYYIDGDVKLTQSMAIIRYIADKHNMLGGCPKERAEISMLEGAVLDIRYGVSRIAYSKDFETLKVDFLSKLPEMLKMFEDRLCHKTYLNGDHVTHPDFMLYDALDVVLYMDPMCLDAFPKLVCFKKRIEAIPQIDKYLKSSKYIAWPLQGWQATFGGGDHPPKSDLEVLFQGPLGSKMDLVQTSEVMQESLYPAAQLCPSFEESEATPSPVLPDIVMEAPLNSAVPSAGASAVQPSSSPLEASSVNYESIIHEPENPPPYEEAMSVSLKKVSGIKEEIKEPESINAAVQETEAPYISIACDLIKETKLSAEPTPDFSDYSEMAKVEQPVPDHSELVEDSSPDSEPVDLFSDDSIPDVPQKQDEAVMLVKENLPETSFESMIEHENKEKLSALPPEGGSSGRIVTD
T1 sequence (chain, as listed by the source limits assumed): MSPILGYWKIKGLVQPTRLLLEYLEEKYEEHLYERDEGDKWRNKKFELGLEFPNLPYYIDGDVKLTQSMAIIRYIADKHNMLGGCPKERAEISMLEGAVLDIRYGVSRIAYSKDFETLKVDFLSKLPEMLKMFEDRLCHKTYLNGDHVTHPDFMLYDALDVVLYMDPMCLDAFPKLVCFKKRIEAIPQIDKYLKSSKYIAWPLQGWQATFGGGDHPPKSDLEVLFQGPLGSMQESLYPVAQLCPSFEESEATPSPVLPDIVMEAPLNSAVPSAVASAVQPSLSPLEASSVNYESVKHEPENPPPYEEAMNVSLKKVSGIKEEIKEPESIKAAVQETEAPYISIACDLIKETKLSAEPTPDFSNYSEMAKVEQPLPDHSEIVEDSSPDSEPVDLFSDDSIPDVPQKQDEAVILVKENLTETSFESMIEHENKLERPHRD

B1: H28L16 (antibody, human IgG1, kappa)
heavy: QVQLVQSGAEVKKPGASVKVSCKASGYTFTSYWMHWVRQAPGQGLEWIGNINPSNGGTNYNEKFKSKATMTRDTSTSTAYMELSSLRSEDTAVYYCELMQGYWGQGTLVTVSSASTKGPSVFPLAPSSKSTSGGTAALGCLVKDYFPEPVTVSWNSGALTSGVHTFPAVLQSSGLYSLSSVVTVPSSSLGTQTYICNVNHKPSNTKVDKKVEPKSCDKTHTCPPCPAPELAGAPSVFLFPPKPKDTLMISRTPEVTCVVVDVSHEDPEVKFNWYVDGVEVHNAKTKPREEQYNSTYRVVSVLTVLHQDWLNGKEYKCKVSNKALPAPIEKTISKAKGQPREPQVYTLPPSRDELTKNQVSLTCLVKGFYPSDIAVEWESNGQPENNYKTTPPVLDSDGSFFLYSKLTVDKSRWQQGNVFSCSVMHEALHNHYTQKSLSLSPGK
light: DIVMTQSPLSNPVTLGQPVSISCRSSKSLLYKDGKTYLNWFLQRPGQSPQLLIYLMSTRASGVPDRFSGGGSGTDFTLKISRVEAEDVGVYYCQQLVEYPLTFGQGTKLEIKRTVAAPSVFIFPPSDEQLKSGTASVVCLLNNFYPREAKVQWKVDNALQSGNSQESVTEQDSKDSTYSLSSTLTLSKADYEKHKVYACEVTHQGLSSPVTKSFNRGEC
notes: IgG1 (L235A, G237A) / kappa; CAMPATH-1H signal (1-19) left out; also called H28FL L16FL; NOGO H28L16
Regarding B1, the “EC50 (read off the curve)” value in assay [1] was approximately 0.05 mg/L; in assay [9], approximately 0.05 mg/L; in [12] it was approximately 0.03 mg/L. Besides, the binding result in assay [2], in assay [3], in assay [6] and in [7] was “binds” each time. The “fold lower affinity than for human Nogo-A” value was 12 fold in [4], approximately 4 fold in [10] and 8.5 fold in assay [11]. Further, the “IC50 (read off the curve)” value in [5] is approximately 4 mg/L. In addition, the Kd in [8] was 0.34 nM; in [13] it was 0.678 nM. This molecule also gave a koff in assay [13] of 0.00524 s⁻¹. Also, in assay [13], the on-rate constant (kon) came out at 7.73e+06 M⁻¹ s⁻¹.

B2: HcLc (chimera of 2A10: murine 2A10 VH and VL with human IgG constant regions) (antibody, V domains shown)
VH: QVQLQQPGTELVKPGASVKLSCKASGYTFTSYWMHWVKQRPGQGLEWIGNINPSNGGTNYNEKFKSKATLTVDKSSSTAYMQLSSLTSEDSAVYYCELGQGYWGQGTLVTVSS
VL: DIVITQDELSNPVTSGESVSISCRSSKSLLYKDGKTYLNWFLQRPGQSPQLLIYLMSTRASGVSDRFSGSGSGTDFTLEISRVKAEDVGVYYCQQLVEYPLTFGAGTKLELKR
notes: also called chimeric antibody; chimeric form of the parental antibody
For the molecule B2, the values for the off-rate constant (koff) in [14] and in assay [13] were 0.00558 s⁻¹ and 0.00774 s⁻¹, respectively. Moreover, the “EC50 (read off the curve)” value was approximately 0.07 mg/L in [1], approximately 0.1 mg/L in [9], approximately 0.04 mg/L in assay [15] and approximately 0.08 mg/L in assay [12]. Moreover, the binding result in [7] was “binds”. Further, the figures for the Kd in assay [8] and in assay [13] were 0.41 nM and 1.46 nM, respectively. In assay [13], this molecule yielded a kon of 5.08e+06 M⁻¹ s⁻¹.
